Results reported in paper doi:10.1101/325712 (bioRxiv, 2018).
Square brackets hold non-standard residues; d marks the D form. Ends that are not written are not given here. pS = N[C@@H](COP(=O)(O)O)C(=O)O

T1: human FLNC domains 18-21 (residues 1943-2408), EEF-tagged (human, UniProt Q14315 1943-2408)
T1 sequence: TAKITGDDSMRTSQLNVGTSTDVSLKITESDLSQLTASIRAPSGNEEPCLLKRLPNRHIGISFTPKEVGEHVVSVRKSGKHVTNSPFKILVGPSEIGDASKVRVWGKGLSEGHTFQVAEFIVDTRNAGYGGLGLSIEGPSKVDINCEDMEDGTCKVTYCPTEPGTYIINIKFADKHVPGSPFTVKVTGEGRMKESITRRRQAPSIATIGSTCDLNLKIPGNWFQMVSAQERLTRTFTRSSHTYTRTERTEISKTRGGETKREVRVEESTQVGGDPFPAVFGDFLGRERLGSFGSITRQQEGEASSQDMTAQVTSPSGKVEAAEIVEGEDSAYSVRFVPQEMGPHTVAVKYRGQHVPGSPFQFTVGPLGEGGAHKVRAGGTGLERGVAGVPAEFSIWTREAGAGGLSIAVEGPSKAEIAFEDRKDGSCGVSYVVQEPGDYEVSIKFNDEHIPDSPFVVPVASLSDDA


What was measured:
[1] = molecular target: human HspB1 ACD (residues 84-170) (human, UniProt P04792 84-170); assay: crystal structure
human HspB1 ACD (residues 84-170), sequence (P04792 84-170): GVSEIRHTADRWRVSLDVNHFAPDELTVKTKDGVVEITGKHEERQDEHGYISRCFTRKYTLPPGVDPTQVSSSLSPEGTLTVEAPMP

[2] = molecular target: T1, human FLNC domains 18-21 (residues …); assay: native MS

Row | Binder | binding result [1] | Kd [2] [µM]
1 | ALSRQL[pS]SGVSEI [HspB1 peptide residues 76-88 phosphorylated at Ser82] | binds | 
2 | Ac-QLSSGVSEI [HspB1 peptide residues 80-88, unphosphorylated] |  | 130 ± 17
3 | Ac-QLSSGVSEI (not fully specified) [HspB1 peptide residues 80-88, phosphorylated] |  | 110 ± 10
